Test results from IntAct's records for PubMed 25533949.

B1: Tyrosine--tRNA ligase, cytoplasmic (Homo sapiens), P54577 (parent)
chain: MGDAPSPEEKLHLITRNLQEVLGEEKLKEILKERELKIYWGTATTGKPHVAYFVPMSKIADFLKAGCEVTILFADLHAYLDNMKAPWELLELRVSYYENVIKAMLESIGVPLEKLKFIKGTDYQLSKEYTLDVYRLSSVVTQHDSKKAGAEVVKQVEHPLLSGLLYPGLQALDEEYLKVDAQFGGIDQRKIFTFAEKYLPALGYSKRVHLMNPMVPGLTGSKMSSSEEESKIDLLDRKEDVKKKLKKAFCEPGNVENNGVLSFIKHVLFPLKSEFVILRDEKWGGNKTYTAYVDLEKDFAAEVVHPGDLKNSVEVALNKLLDPIREKFNTPALKKLASAAYPDPSKQKPMAKGPAKNSEPEEVIPSRLDIRVGKIITVEKHPDADSLYVEKIDVGEAEPRTVVSGLVQFVPKEELQDRLVVVLCNLKPQKMRGVESQGMLLCASIEGINRQVEPLDPPAGSAPGEHVFVKGYEKGQPDEELKPKKKVFEKLQADFKISEECIAQWKQTNFMTKLGSISCKSLKGGNIS

Variants of: B1
Conditions: with parp1_human PARP1, P09874
Sequence of parp1_human PARP1, P09874 (P09874 whole entry): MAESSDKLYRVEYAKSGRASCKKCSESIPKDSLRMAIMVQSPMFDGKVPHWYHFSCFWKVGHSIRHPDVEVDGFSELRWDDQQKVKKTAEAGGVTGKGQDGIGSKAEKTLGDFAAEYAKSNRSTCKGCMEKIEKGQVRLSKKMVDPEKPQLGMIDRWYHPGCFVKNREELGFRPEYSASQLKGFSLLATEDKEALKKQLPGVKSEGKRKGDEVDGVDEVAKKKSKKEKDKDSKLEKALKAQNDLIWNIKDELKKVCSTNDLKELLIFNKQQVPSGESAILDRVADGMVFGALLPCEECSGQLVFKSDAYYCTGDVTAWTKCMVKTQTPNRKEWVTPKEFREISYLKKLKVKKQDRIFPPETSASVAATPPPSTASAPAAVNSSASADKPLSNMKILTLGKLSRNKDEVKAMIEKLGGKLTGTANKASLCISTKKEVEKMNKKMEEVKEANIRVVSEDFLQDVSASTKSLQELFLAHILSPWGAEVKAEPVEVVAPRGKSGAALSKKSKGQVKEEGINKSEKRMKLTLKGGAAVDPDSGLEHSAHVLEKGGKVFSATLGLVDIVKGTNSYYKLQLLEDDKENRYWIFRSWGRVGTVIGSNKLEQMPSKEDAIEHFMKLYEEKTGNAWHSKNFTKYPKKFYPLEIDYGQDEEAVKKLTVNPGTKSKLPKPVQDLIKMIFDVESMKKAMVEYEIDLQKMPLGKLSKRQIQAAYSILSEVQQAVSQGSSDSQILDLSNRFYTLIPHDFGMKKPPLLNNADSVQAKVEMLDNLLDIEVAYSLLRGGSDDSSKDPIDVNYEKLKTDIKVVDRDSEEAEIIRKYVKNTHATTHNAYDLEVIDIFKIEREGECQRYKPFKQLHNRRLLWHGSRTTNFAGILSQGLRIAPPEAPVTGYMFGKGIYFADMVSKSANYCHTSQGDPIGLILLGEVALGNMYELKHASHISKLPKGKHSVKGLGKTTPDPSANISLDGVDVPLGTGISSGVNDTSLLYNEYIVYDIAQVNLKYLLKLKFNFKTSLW

Row | effect of a mutation on the interaction | Variant
1 | increasing interaction strength | MGDAPSPEEKLHLITRNLQEVLGEEKLKEILKERELKIYWGTATTGKPHVAYFVPMSKIADFLKAGCEVTILFADLHAYLDNMKAPWELLELRVSYYENVIKAMLESIGVPLEKLKFIKGTDYQLSKEYTLDVYRLSSVVTQHDSKKAGAEVVKQVEHPLLSGLLYPGLQALDEEYLKVDAQFGGIDQRKIFTFAEKYLPALGYSKRVHLMNPMVPGLTGSKMSSSEEESKIDLLDRKEDVKKKLKKAFCEPGNVENNGVLSFIKHVLFPLKSEFVILRDEKWGGNKTYTAYVDLEKDFAAEVVHPGDLKNSVEVALNKLLDPIREKFNTPALKKLASAAAPDPSKQKPMAKGPAKNSEPEEVIPSRLDIRVGKIITVEKHPDADSLYVEKIDVGEAEPRTVVSGLVQFVPKEELQDRLVVVLCNLKPQKMRGVESQGMLLCASIEGINRQVEPLDPPAGSAPGEHVFVKGYEKGQPDEELKPKKKVFEKLQADFKISEECIAQWKQTNFMTKLGSISCKSLKGGNIS [Y341A]
